The supplement of paper PMC7877785
± gives the uncertainty stated by the source.

Experiment: self-splicing fitness, log relative to wild type (ln ratio); higher = more splicing; Tetrahymena group I intron in knt gene, E. coli kanamycin selection, DiMSum; sequences stand for … in CUCUCU…GGAGGGAAAAGUUAUCAGGCAUGCACCUGGUAGCUAGUCUUUAAACCAAUAGAUUGCAUCGGUUUAAAAGGCAAGACCGUCAAAUUGCGGGAAAGGGGUCAACAGCCGUUCAGUACCAAGUCUCAGGGGAAACUUUGAGAUGGCCUUGCAAAGGGUAUGGUAAUAAGCUGACGGACAUGGUCCUAACCACGCAGCCAAGUCCUAAGUCAACAGAUCUUCUGUUGAUAUGGAUGCAGUUCACAGACUAAAUGUCGGUCGGGGAAGAUGUAUUCUUCUCAUAAGAUAUAGUCGGACCUCUCCUUAAUGGGAGCUAGCGGAUGAAGUGAUGCAACACUGGAGCCGCUGGGAACUAAUUUGUAUGCGAAAGUAUAUUGAUUAGUUUUGGAGUACUCGUGGUCG
Method in brief: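 DiMSum derived fitness as the error-weighted combination of fold changes across replicates, kanamycin versus no kanamycin, normalised to wild type. E. coli BL21(DE3) held the library, which randomised all eight P1ex-region intron nucleotides within the knt kanamycin-resistance gene on pET-22b(+). Six replicate transformations grew overnight at 37°C or 30°C on LB agar with or without 25 μg/mL kanamycin, also containing 100 μg/mL carbenicillin, 50 μM IPTG and 0.2% rhamnose, and pooled colonies were amplicon-sequenced on an Illumina HiSeq 2500.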

Sequence | self-splicing fitness (ln) (30 °C) | self-splicing fitness (ln) (37 °C)
CUUCAGCAAUAUUACGCUAU | -3.33 ± 0.37 | -1.99 ± 0.25
CUUCAGCAAUAUUACGCUGG | -3.83 ± 0.21 | -2.15 ± 0.14
CUUCAGCAAUAUUACGGAAA | -1.17 ± 0.18 | -1.16 ± 0.15
CUUCAGCAAUAUUACGGAAG | -4.18 ± 0.28 | -2.4 ± 0.2
CUUCAGCAAUAUUACGGAUG | -1.48 ± 0.069 | -0.191 ± 0.1
CUUCAGCAAUAUUACGGCAG | -0.556 ± 0.12 | -0.351 ± 0.14
CUUCAGCAAUAUUACGGCGU | -4.44 ± 0.24 | -1.8 ± 0.17
CUUCAGCAAUAUUACGGCUC | -3.8 ± 0.37 | -2.51 ± 0.35
CUUCAGCAAUAUUACGGCUG | -3.75 ± 0.34 | -2.65 ± 0.47
CUUCAGCAAUAUUACGGUAG | -1.94 ± 0.12 | -0.92 ± 0.14
CUUCAGCAAUAUUACGGUUA | -1.58 ± 0.19 | -1.08 ± 0.2
CUUCAGCAAUAUUACGUAGU | -4 ± 0.16 | -2.5 ± 0.19
CUUCAGCAAUAUUACGUCGU | -4.07 ± 0.14 | -2.88 ± 0.12
CUUCAGCAAUAUUACGUGAC | -4.76 ± 0.46 | -3.05 ± 0.37
CUUCAGCAAUAUUACGUGCC | -3.44 ± 0.31 | –
CUUCAGCAAUAUUACGUGCU | -3.07 ± 0.12 | -2.6 ± 0.13
CUUCAGCAAUAUUACGUGGU | -3.25 ± 0.21 | -2.22 ± 0.24
CUUCAGCAAUAUUACGUGUG | -1.1 ± 0.061 | -0.859 ± 0.076
CUUGAGCAAUAUUACGAGGG | -3.25 ± 0.3 | -2.37 ± 0.42
CUUGAGCAAUAUUACGAGUC | -4.15 ± 0.39 | -1.33 ± 0.17
CUUGAGCAAUAUUACGCACU | -3.64 ± 0.39 | -1.9 ± 0.44
CUUGAGCAAUAUUACGCGGU | -2.53 ± 0.33 | -2.78 ± 0.48
CUUGAGCAAUAUUACGCUGC | -2.39 ± 0.49 | –
CUUGAGCAAUAUUACGCUUA | -2.82 ± 0.29 | -3.02 ± 0.37
CUUGAGCAAUAUUACGGAAG | -2.62 ± 0.25 | -2.23 ± 0.28

Sequence | self-splicing fitness (ln) (30 °C) | self-splicing fitness (ln) (37 °C)
CUUGAGCAAUAUUACGGCCA | -1.69 ± 0.23 | -2.78 ± 0.36
CUUGAGCAAUAUUACGGGAG | -3.95 ± 0.22 | -3.25 ± 0.26
CUUGAGCAAUAUUACGGGCU | – | -1.91 ± 0.25
CUUGAGCAAUAUUACGGUAG | -2.88 ± 0.11 | -0.826 ± 0.094
CUUGAGCAAUAUUACGGUAU | -3.17 ± 0.2 | -2.65 ± 0.26
CUUGAGCAAUAUUACGUACG | -1.44 ± 0.097 | -0.683 ± 0.1
CUUGAGCAAUAUUACGUAGC | -3.2 ± 0.2 | -2.4 ± 0.29
CUUGAGCAAUAUUACGUAUU | – | -3.02 ± 0.37
CUUGAGCAAUAUUACGUCAG | -1.6 ± 0.15 | -0.671 ± 0.17
CUUGAGCAAUAUUACGUCGU | -3.97 ± 0.18 | -2.75 ± 0.2
CUUGAGCAAUAUUACGUUAA | -2.47 ± 0.16 | -2.6 ± 0.22
CUUGAGCAAUAUUACGUUUG | -3.1 ± 0.16 | -2.26 ± 0.18
CUUUAGCAAUAUUACGAAAG | -3.18 ± 0.23 | -1.7 ± 0.28
CUUUAGCAAUAUUACGAAAU | -2.94 ± 0.36 | -1.99 ± 0.41
CUUUAGCAAUAUUACGAGAU | -3.83 ± 0.23 | -2.57 ± 0.22
CUUUAGCAAUAUUACGCACA | – | -1.19 ± 0.35
CUUUAGCAAUAUUACGCGAU | -3.05 ± 0.24 | -0.751 ± 0.17
CUUUAGCAAUAUUACGCGCC | -3.07 ± 0.37 | -2.39 ± 0.45
CUUUAGCAAUAUUACGCUAA | -4.31 ± 0.46 | -3.2 ± 0.47
CUUUAGCAAUAUUACGCUAG | -3.45 ± 0.31 | -2.11 ± 0.27
CUUUAGCAAUAUUACGGAAC | – | -1.93 ± 0.48
CUUUAGCAAUAUUACGGAAG | -3.17 ± 0.19 | -2.8 ± 0.23
CUUUAGCAAUAUUACGGAUG | -0.333 ± 0.067 | 0.313 ± 0.098
CUUUAGCAAUAUUACGGCCG | -0.432 ± 0.19 | -0.348 ± 0.29
CUUUAGCAAUAUUACGGCGU | -3.31 ± 0.47 | -1.89 ± 0.26

Sequence | self-splicing fitness (ln) (30 °C) | self-splicing fitness (ln) (37 °C)
CUUUAGCAAUAUUACGGGAG | -2.89 ± 0.18 | -2.57 ± 0.21
CUUUAGCAAUAUUACGGGUU | -3.22 ± 0.34 | -0.807 ± 0.19
CUUUAGCAAUAUUACGGUCU | -3.25 ± 0.2 | -3.94 ± 0.36
CUUUAGCAAUAUUACGUACA | -2.89 ± 0.22 | –
CUUUAGCAAUAUUACGUAUU | -3.07 ± 0.24 | -1.34 ± 0.21
CUUUAGCAAUAUUACGUCAA | -2.48 ± 0.35 | -2.67 ± 0.38
CUUUAGCAAUAUUACGUCGC | – | -1.58 ± 0.34
CUUUAGCAAUAUUACGUGAU | -2.8 ± 0.14 | -1.05 ± 0.15
GAAAAGCAAUAUUACGAAGC | -3.19 ± 0.22 | -2.65 ± 0.28
GAAAAGCAAUAUUACGACAC | -0.467 ± 0.14 | -0.346 ± 0.17
GAAAAGCAAUAUUACGAGUC | -2.16 ± 0.15 | -0.233 ± 0.1
GAAAAGCAAUAUUACGAUUC | -2.34 ± 0.17 | -1.42 ± 0.15
GAAAAGCAAUAUUACGCAAG | -2.02 ± 0.11 | -1.46 ± 0.14
GAAAAGCAAUAUUACGCCAC | -5.15 ± 0.38 | -2.7 ± 0.36
GAAAAGCAAUAUUACGCGAA | -2.75 ± 0.2 | -1.13 ± 0.18
GAAAAGCAAUAUUACGCGAG | -1.64 ± 0.058 | -0.497 ± 0.068
GAAAAGCAAUAUUACGCUAU | -2.9 ± 0.21 | -0.854 ± 0.2
GAAAAGCAAUAUUACGCUUA | -2.27 ± 0.14 | -1.39 ± 0.14
GAAAAGCAAUAUUACGGAUG | -2.63 ± 0.1 | -1.14 ± 0.1
GAAAAGCAAUAUUACGGGCA | -0.677 ± 0.086 | -0.191 ± 0.093
GAAAAGCAAUAUUACGGGUC | -2.09 ± 0.14 | -2.58 ± 0.22
GAAAAGCAAUAUUACGGUAC | -1.94 ± 0.079 | -1.11 ± 0.09
GAAAAGCAAUAUUACGUCGC | -1.38 ± 0.08 | -0.835 ± 0.086
GAAAAGCAAUAUUACGUCGU | -0.785 ± 0.086 | -1.29 ± 0.12
GAACAGCAAUAUUACGAACA | -0.908 ± 0.1 | -0.166 ± 0.12

Sequence | self-splicing fitness (ln) (30 °C) | self-splicing fitness (ln) (37 °C)
GAACAGCAAUAUUACGAUAG | -3.6 ± 0.14 | -0.972 ± 0.094
GAACAGCAAUAUUACGAUGA | -0.145 ± 0.077 | -0.155 ± 0.081
GAACAGCAAUAUUACGCAAC | -1.58 ± 0.097 | -0.355 ± 0.13
GAACAGCAAUAUUACGCAAU | -1.53 ± 0.11 | -0.769 ± 0.11
GAACAGCAAUAUUACGCACC | -0.638 ± 0.096 | 0.0849 ± 0.097
GAACAGCAAUAUUACGCAGC | -2.2 ± 0.29 | -1.16 ± 0.23
GAACAGCAAUAUUACGCCAG | -3.71 ± 0.15 | -3.05 ± 0.27
GAACAGCAAUAUUACGCCUA | -1.42 ± 0.086 | -0.336 ± 0.087
GAACAGCAAUAUUACGCCUG | -1.85 ± 0.13 | 0.185 ± 0.13
GAACAGCAAUAUUACGCGCA | -0.367 ± 0.06 | 0.0257 ± 0.081
GAACAGCAAUAUUACGCGCG | -0.924 ± 0.064 | -0.265 ± 0.085
GAACAGCAAUAUUACGCGGG | -1.87 ± 0.1 | -1.37 ± 0.11
GAACAGCAAUAUUACGCUGA | -3.29 ± 0.2 | -2.04 ± 0.14
GAACAGCAAUAUUACGCUUU | -2.71 ± 0.14 | -1.93 ± 0.15
GAACAGCAAUAUUACGGAAC | -1.44 ± 0.1 | -1.55 ± 0.13
GAACAGCAAUAUUACGGAUA | -2.51 ± 0.13 | -1.28 ± 0.12
GAACAGCAAUAUUACGGCCC | -0.734 ± 0.27 | -0.265 ± 0.28
GAACAGCAAUAUUACGGCCG | -2.39 ± 0.11 | -0.46 ± 0.14
GAACAGCAAUAUUACGGUCA | -0.702 ± 0.062 | -1.05 ± 0.066
GAACAGCAAUAUUACGGUUA | -0.16 ± 0.059 | -0.275 ± 0.064
GAACAGCAAUAUUACGUACA | -0.915 ± 0.073 | -0.72 ± 0.082
GAACAGCAAUAUUACGUCCA | -0.934 ± 0.089 | -0.369 ± 0.1
